According to paper PMC13344147 (Structure (London, England : 1993), 2025):

Biological target: the molecule itself
Assay: cryo-EM structure

B1: human CPEB3 residues 1-217 (prion-like domain 1 construct) (domain or fragment, UniProt Q8NE35 1-217, looked up)
chain: MQDDLLMDKSKTQPQPQQQQRQQQQPQPESSVSEAPSTPLSSETPKPEENSAVPALSPAAAPPAPNGPDKMQMESPLLPGLSFHQPPQQPPPPQEPAAPGASLSPSFGSTWSTGTTNAVEDSFFQGITPVNGTMLFQNFPHHVNPVFGGTFSPQIGLAQTQHHQQPPPPAPAPQPAQPAQPPQAQPPQQRRSPASPSQAPYAQRSAAAAYGHQPIMT
binding result: binds
